The supplement of paper PMC7125110
± gives the standard error. For part of these data: Variants at the floor of the assay were thinned out.

B1: glmS ribozyme (parent)
chain: AUAAAAGCGCCAGAACUACAGAAAUGUAGUUGACGAGGAGGAGGUUUAUCGAAUUUUCGGCGGAUGCCUCCAAA

How the values were obtained:
Details in all cases: with glucosamine-6-phosphate
[1] = variants of: B1; assay: kcat; higher = faster cleavage; RNA array
How it was run: (§1)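 Using a hybridised Cy3 probe at 37 °C, barcoded ribozyme variants transcribed in situ by E. coli RNA polymerase on sequenced MiSeq chips were monitored across tiles imaged over ~14 h. The flow contained glucosamine-6-phosphate from 40 μM to 10 mM in HEPES/KCl/Mg(OAc)2 buffer. Signals were normalised to baseline and to non-cleaving reference variants before per-tile medians were fit to one- or two-exponential decays to yield kobs. Weighted Michaelis–Menten fits across concentrations gave kcat and KM.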

[2] = variants of: B1; assay: KM; higher = weaker cofactor use; RNA array
How it was run: as §1

[3] = variants of: B1; assay: self-cleavage kobs at 40 uM GlcN6P; higher = faster cleavage; RNA array
How it was run: as §1

[4] = variants of: B1; assay: self-cleavage kobs at 160 uM GlcN6P; higher = faster cleavage; RNA array
How it was run: as §1

[5] = variants of: B1; assay: self-cleavage kobs at 640 uM GlcN6P; higher = faster cleavage; RNA array
How it was run: as §1

[6] = variants of: B1; assay: self-cleavage kobs at 2500 uM GlcN6P; higher = faster cleavage; RNA array
How it was run: as §1

[7] = variants of: B1; assay: self-cleavage kobs at 10000 uM GlcN6P; higher = faster cleavage; RNA array
How it was run: as §1

Row | Variant | kcat [1] [s⁻¹] | KM [2] [µM] | self-cleavage kobs at 40 uM GlcN6P [3] [s⁻¹] | self-cleavage kobs at 160 uM GlcN6P [4] [s⁻¹] | self-cleavage kobs at 640 uM GlcN6P [5] [s⁻¹] | self-cleavage kobs at 2500 uM GlcN6P [6] [s⁻¹] | self-cleavage kobs at 10000 uM GlcN6P [7] [s⁻¹]
1 | C16G C71U | 0.00252 ± 0.00053 | 956 ± 300 | 0.000132 ± 1.8e-05 | 0.000323 ± 5.6e-05 | 0.000865 ± 0.00012 | 0.00228 ± 0.00066 | 0.00248 ± 0.00036
2 | A15U A53U | 0.00543 ± 0.0013 | 2950 ± 940 | 9.26e-05 ± 9.9e-06 | 0.000245 ± 3.8e-05 | 0.000755 ± 0.00012 | 0.00314 ± 0.00055 | 0.0042 ± 0.00042
3 | G29A C67U | 0.000866 ± 0.00021 | 742 ± 320 | 4.43e-05 ± 8.6e-06 | 0.000247 ± 5.1e-05 | 0.00034 ± 5.8e-05 | 0.00056 ± 0.00012 | 0.00104 ± 0.00017
4 | C16G A52G | 0.000339 ± 0.0001 |  |  |  | 7.43e-05 ± 2.3e-05 | 0.000119 ± 1.9e-05 | 0.000262 ± 4.1e-05
5 | A23C C70A | 0.000172 ± 3.1e-05 | 139 ± 68 | 3.76e-05 ± 1.2e-05 |  |  | 0.000302 ± 0.0001 | 0.000156 ± 3.2e-05
6 | G29A G32A C71A | 0.000259 ± 0.00011 |  |  |  | 6.03e-05 ± 2.6e-05 |  | 0.000201 ± 4.4e-05
7 | C16G U30A | 0.000474 ± 6e-05 | 1780 ± 370 |  | 3.9e-05 ± 1.2e-05 | 0.00012 ± 2.3e-05 | 0.000313 ± 6.1e-05 | 0.000372 ± 9.2e-05
